Test results published in patent US20180086829A1 (published 2018).
Like-named read-outs stand apart in the source and are kept apart here.

B1: anti-LILRB4 rabbit monoclonal antibody #120 (antibody, V domains shown)
VH: QSLEESGGRLVTPGTPLTLTCTVSGIDLNKYAMTWVRQAPGKGLEYIGFINIVGIAGYATWAKGRFTISKTSTTVDLKVTSPTTEDTATYFCARNWIRLDLWGQGTLVTVSS
VL: ELDLTQTPASVSAAVGGTVTISCQSSESLYKKNYLSWFQQKPGQPPKLLIFEASKLASGVPSRFSGSGSGTQFTLTISDVQCDDAASYYCLGDYTNGRDTTFGGGTEVVVK
B2: anti-LILRB4 rabbit monoclonal antibody #192 (antibody, V domains shown)
VH: EQSLEESGGGLVTPGGTLTLTCTVSGFSLSNNAMSWVRQAPGKGLEWIGVILLAGPTYYASWAKGRFTISKTSTTVDLKITSPTTEDTATYFCAIAIGSRPFALWGQGTLVTISS
VL: ELVLTQTPSSTSAAVGGTVTINCQSSQSVYSNWLSWFQQKPGQPPKPLIYLASTLASGVPSRFSGSGSGTQFTLTISDVQCDDAATYYCQGGYNGNIYTFGGGTEVVVK
B3: anti-LILRB4 rabbit monoclonal antibody #208 (antibody, V domains shown)
VH: EQSVEESGGGLVTPGGTLTLTCTVSGFSLSNNAMSWVRQAPGKGLEWIGVILLSGTTYYASWAKGRFTISKTSTTVDLKITSPTTEDTATYFCAIAIGSRPFALWGQGTLVTISS
VL: ELVMTQTPSSTSAAVGGTVTINCQSSQSVYSNWLSWFQQKPGQPPKPLIYLASTLASGVPSRFSGSGSGTQFTLTISDVQCDDAATYYCQGGYNGNIYTFGGGTEVVVK
B4: anti-LILRB4 rabbit monoclonal antibody #161-2 (antibody, V domains shown)
VH: QSVKESGGRLVTPGTPLTLTCTVSGIDLSVYLMSWVRHSPGKGLEYIGFINSAGITAYATWAKGRFIISKTSTTVDLKVTSPTTEDTATYFCARNWIRLDLWGQGTLVTISS
VL: TQTPASVSAAVGGTVTISCQSSETIYKNYLSWFQQKPGQPPKLLIYESSKLASGVPSRFSGSGSGTQFTLTISDVQCDDAATYYCLGGYTDGRDTIFGGGTEVEIK
B5: anti-LILRB4 rabbit monoclonal antibody #161-1 (antibody, V domains shown)
VH: QSVKESGGRLVTPGTPLTLTCTVSGIDLSVYLMSWVRHSPGKGLEYIGFINSAGITAYATWAKGRFIISKTSTTVDLKVTSPTTEDTATYFCARNWIRLDLWGQGTLVTISS
VL: ELDLTQTPASVSAAVGGTVTISCQSSETIYKNYLSWFQQKPGQPPKLLIYESSKLASGVPSRFSGSGSGTQFTLTISDVQCDDAATYYCLGGYTDGRDTIFGGGTELEIK
B6: anti-LILRB4 rabbit monoclonal antibody #78 (antibody, V domains shown)
VH: QSLQESGGRLVTPGTPLTLTCTVSGIDLSVYLMSWVRQSPGKGLEYIGFINSAGITAYATWAKGRFIISKTSTTVDLKVTSPTTEDTATYFCARNWIRLDLWGQGTLVTISS
VL: ELVLTQTPASVSAAVGGTVTISCQSSESIYKNYLSWFQQKPGQPPKLLIYETSKLASGVPSRFSGSGSGTQFTLTISDVQCDDAATYYCLGGYTNGRDTIFGGGTELEIK

Tests used:
Experiment in all cases: ELISA
human LILRB4 [1] = biological target: T1, human LILRB4 (UniProt Q8NHJ6 22-259)
T1 sequence (Q8NHJ6 22-259): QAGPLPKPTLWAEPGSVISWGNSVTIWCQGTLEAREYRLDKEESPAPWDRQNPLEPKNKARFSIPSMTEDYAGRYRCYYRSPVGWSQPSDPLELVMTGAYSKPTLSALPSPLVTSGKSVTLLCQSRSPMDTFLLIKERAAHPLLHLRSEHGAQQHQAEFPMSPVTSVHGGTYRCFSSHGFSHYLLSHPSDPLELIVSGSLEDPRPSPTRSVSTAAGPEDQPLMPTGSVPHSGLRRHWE

human LILRB4 [2] = biological target: T1, human LILRB4; remark: listed apart in the source
human LILRB4 [3] = biological target: T1, human LILRB4; remark: listed apart in the source

Row | Binder | EC50 (human LILRB4 [1]) | EC50 (human LILRB4 [2]) | EC50 (human LILRB4 [3])
1 | B1 | 0.0119 µg/mL | – | –
2 | B2 | – | 0.021 µg/mL | –
3 | B3 | – | – | 0.0198 µg/mL
4 | B4 | – | – | 0.0126 µg/mL
5 | B5 | – | 0.0104 µg/mL | –
6 | B6 | 0.0121 µg/mL | – | –
